The values below come from the Immune Epitope Database (IEDB).

Experiment [1] has as its target HLA-A*02:03. Briefly: IEDB peptide-MHC binding, cellular MHC/competitive/fluorescence; ≥ and ≤ were set here for values at or beyond the usual limits of such assays.
For experiment [2], the target named is HLA-A*02:01. Briefly: IEDB peptide-MHC binding, purified MHC/competitive/radioactivity; ≥ and ≤ were set here for values at or beyond the usual limits of such assays.
The target in experiment [3] is HLA-A*02:02. Described as above.
The target in experiment [4] is HLA-A*68:02. Described as above.
Experiment [5] addresses HLA-A*02:06. The description is as above.
Experiment [6] deals with HLA-A*02:01. Briefly: IEDB peptide-MHC binding, cellular MHC/competitive/fluorescence; ≥ and ≤ were set here for values at or beyond the usual limits of such assays.
Experiment [7] deals with HLA-A*02:02. The experiment is described as above.
The target in experiment [8] is HLA-A*68:02. The description is as above.
For experiment [9], the target named is HLA-A*02:06. Described as above.
For experiment [10], the target named is HLA-A*02:03. Briefly: IEDB peptide-MHC binding, purified MHC/competitive/radioactivity; ≥ and ≤ were set here for values at or beyond the usual limits of such assays.
The mark [11] stands for this setting: source organism: Vaccinia virus WR.
The mark [12] stands for this setting: source organism: Mammarenavirus lassaense.
[13] abbreviates: source organism: Mammarenavirus whitewaterense.
[14] abbreviates: source organism: Influenza A virus.

A word on the IC50: it is the concentration that inhibits the measured activity by half. For DIKYISRDEL, the IC50 with HLA-A*02:03 [1] (setting [11]) was 9.58 µM; in the experiment with HLA-A*02:01 [2] (setting [11]), 3.57 µM; in the experiment with HLA-A*02:02 [3] (setting [11]), 2.55 µM; with HLA-A*68:02 [4] (setting [11]), 0.321 µM; with HLA-A*02:06 [5] (setting [11]), 2.06 µM.

As for IASGQRCHFI, the IC50 with HLA-A*02:01 [6] (setting [11]) was determined as 18.4 µM; with HLA-A*02:03 [1] (setting [11]), 8.32 µM; in the experiment with HLA-A*02:02 [3] (setting [11]), 0.526 µM; with HLA-A*68:02 [4] (setting [11]), 4.22 µM; with HLA-A*02:06 [5] (setting [11]), 0.256 µM.

As for CNYSKYWYL, the IC50 with HLA-A*02:01 [6] (setting [12]) turned out to be 16.3 µM; in the experiment with HLA-A*02:03 [1] (setting [12]) it was 7.13 µM; in the experiment with HLA-A*02:02 [3] (setting [12]) it was 3.66 µM; in the experiment with HLA-A*68:02 [4] (setting [12]), 4.19 µM; with HLA-A*02:06 [5] (setting [12]), 2.71 µM.

As to DIPTFNSLNT, the IC50 in the experiment with HLA-A*02:01 [6] (setting [11]) came out at 23 µM; with HLA-A*02:03 [1] (setting [11]), 16.6 µM; with HLA-A*02:02 [3] (setting [11]), 2.02 µM; in the experiment with HLA-A*68:02 [4] (setting [11]) it was 0.9 µM; with HLA-A*02:06 [5] (setting [11]), 0.045 µM.

Turning to YAVLSEYET, the IC50 with HLA-A*02:01 [6] (setting [11]) was 37.2 µM; in the experiment with HLA-A*02:03 [1] (setting [11]), 35.1 µM; with HLA-A*02:02 [3] (setting [11]), 1.78 µM; with HLA-A*68:02 [4] (setting [11]), 0.246 µM; in the experiment with HLA-A*02:06 [5] (setting [11]), 1.33 µM.

TTTFITVLT: the IC50 with HLA-A*02:03 [1] (setting [11]) turned out to be 8.59 µM; with HLA-A*02:01 [2] (setting [11]) it was 2.32 µM; with HLA-A*02:02 [3] (setting [11]) it was 2.46 µM; with HLA-A*68:02 [4] (setting [11]), 0.033 µM; in the experiment with HLA-A*02:06 [5] (setting [11]) it was 1.09 µM.

As to SVDIETAIRA, the IC50 is 5.14 µM in the experiment with HLA-A*02:01 [6] (setting [11]); 7.62 µM with HLA-A*02:03 [1] (setting [11]); 2.83 µM with HLA-A*02:02 [3] (setting [11]); 0.834 µM with HLA-A*68:02 [4] (setting [11]); 1.03 µM with HLA-A*02:06 [5] (setting [11]).

Turning to ETDDDGNYPL, the IC50 with HLA-A*02:03 [1] (setting [11]) was found to be 28.2 µM; with HLA-A*02:01 [2] (setting [11]), 2.17 µM; with HLA-A*02:02 [3] (setting [11]), 3.59 µM; with HLA-A*68:02 [4] (setting [11]), 0.027 µM; in the experiment with HLA-A*02:06 [5] (setting [11]) it was 1.16 µM.

Turning to VCFWSTLFYV, the IC50 with HLA-A*02:03 [1] (setting [13]) was 7.02 µM; with HLA-A*02:01 [2] (setting [13]) it was 0.904 µM; in the experiment with HLA-A*02:02 [3] (setting [13]) it was 0.349 µM; in the experiment with HLA-A*68:02 [4] (setting [13]) it was 0.525 µM; in the experiment with HLA-A*02:06 [5] (setting [13]) it was 1.13 µM.

Regarding FLVLIMLII, the IC50 in the experiment with HLA-A*02:03 [1] (source organism: SARS-CoV1) was 9.73 µM; in the experiment with HLA-A*02:01 [2] (source organism: SARS-CoV1) it was 2.3 µM; with HLA-A*02:02 [3] (source organism: SARS-CoV1) it was 1.63 µM; with HLA-A*68:02 [4] (source organism: SARS-CoV1), 2.57 µM; with HLA-A*02:06 [5] (source organism: SARS-CoV1) it was 1.35 µM.

In the case of CAVIPFDDIV, the IC50 came to 7.42 µM in the experiment with HLA-A*02:03 [1] (setting [11]); 1.09 µM with HLA-A*02:01 [2] (setting [11]); 2.92 µM with HLA-A*02:02 [3] (setting [11]); 0.137 µM with HLA-A*68:02 [4] (setting [11]); 0.184 µM with HLA-A*02:06 [5] (setting [11]).

Take SLETVKMGA: the IC50 was 26.1 µM with HLA-A*02:01 [6] (setting [11]); 11.2 µM in the experiment with HLA-A*02:02 [7] (setting [11]); at least 70 µM with HLA-A*68:02 [8] (setting [11]); 23.4 µM in the experiment with HLA-A*02:06 [9] (setting [11]); 0.547 µM with HLA-A*02:03 [10] (setting [11]).

Regarding LAKSVFNSL, the IC50 in the experiment with HLA-A*02:01 [6] (setting [14]) was 30.9 µM; in the experiment with HLA-A*02:02 [7] (setting [14]), 14 µM; in the experiment with HLA-A*68:02 [8] (setting [14]), at least 70 µM; with HLA-A*02:06 [9] (setting [14]), 17.1 µM; with HLA-A*02:03 [10] (setting [14]), 3.1 µM.

Regarding TLNRNQPAA, the IC50 in the experiment with HLA-A*02:01 [6] (setting [14]) is 15.2 µM; with HLA-A*02:02 [7] (setting [14]), 11.4 µM; in the experiment with HLA-A*68:02 [8] (setting [14]), at least 70 µM; with HLA-A*02:06 [9] (setting [14]), at least 70 µM; with HLA-A*02:03 [10] (setting [14]), 0.583 µM.

With IAGGVCYYLL, the IC50 worked out at 14.6 µM in the experiment with HLA-A*02:03 [1] (setting [11]); 0.174 µM with HLA-A*02:01 [2] (setting [11]); 4.58 µM with HLA-A*02:02 [3] (setting [11]); 0.268 µM with HLA-A*68:02 [4] (setting [11]); 0.656 µM with HLA-A*02:06 [5] (setting [11]).

RLLKNMKQCT: the half-maximal inhibitory concentration (IC50) in the experiment with HLA-A*02:01 [6] (setting [11]) was 9.76 µM; with HLA-A*02:02 [7] (setting [11]), 46.8 µM; with HLA-A*68:02 [8] (setting [11]) it was at least 70 µM; with HLA-A*02:06 [9] (setting [11]), 11.9 µM; in the experiment with HLA-A*02:03 [10] (setting [11]) it was 3.14 µM.

Turning to FIVYGRSNA, the IC50 with HLA-A*02:01 [6] (setting [11]) was determined as 16.9 µM; with HLA-A*02:02 [7] (setting [11]) it was 6.09 µM; with HLA-A*68:02 [8] (setting [11]), 5.26 µM; in the experiment with HLA-A*02:06 [9] (setting [11]), 8.75 µM; with HLA-A*02:03 [10] (setting [11]), 0.37 µM.

As to ELENKKVEYV, the IC50 in the experiment with HLA-A*02:01 [6] (setting [11]) was 35.5 µM; with HLA-A*02:02 [7] (setting [11]), 21.4 µM; in the experiment with HLA-A*68:02 [8] (setting [11]), at least 70 µM; with HLA-A*02:06 [9] (setting [11]), at least 70 µM; with HLA-A*02:03 [10] (setting [11]), 3.65 µM.

With AIRGQYSGFV, the IC50 turned out to be 12.9 µM in the experiment with HLA-A*02:01 [6] (setting [14]); 6.28 µM with HLA-A*02:02 [7] (setting [14]); 18.4 µM with HLA-A*68:02 [8] (setting [14]); 42.8 µM with HLA-A*02:06 [9] (setting [14]); 0.092 µM with HLA-A*02:03 [10] (setting [14]).

As to SICLDYIIV, the IC50 with HLA-A*02:03 [1] (setting [11]) was found to be 8.65 µM; with HLA-A*02:01 [2] (setting [11]), 0.579 µM; with HLA-A*02:02 [3] (setting [11]) it was 1.46 µM; with HLA-A*68:02 [4] (setting [11]) it was 2.93 µM; with HLA-A*02:06 [5] (setting [11]) it was 0.689 µM.

With KTKISVEKI, the IC50 with HLA-A*02:01 [6] (setting [11]) is 26.9 µM; with HLA-A*02:02 [7] (setting [11]) it was 7.6 µM; with HLA-A*68:02 [8] (setting [11]) it was at least 70 µM; in the experiment with HLA-A*02:06 [9] (setting [11]), 10.7 µM; with HLA-A*02:03 [10] (setting [11]), 0.112 µM.

TLNTMTKDA: the half-inhibitory concentration (IC50) in the experiment with HLA-A*02:01 [6] (setting [14]) was 10.2 µM; with HLA-A*02:02 [7] (setting [14]) it was 14.7 µM; with HLA-A*68:02 [8] (setting [14]) it was at least 70 µM; with HLA-A*02:06 [9] (setting [14]), at least 70 µM; with HLA-A*02:03 [10] (setting [14]), 0.581 µM.
